According to publication PMC3968367:

Key:
[1] = target: Shaker IR (Drosophila) (UniProt P08510)
[2] = target: rKv1.1 (rat) (UniProt P10499)
[3] = target: rKv1.2 (rat) (UniProt P63142)
[4] = target: rKv1.3 (rat) (UniProt P15384)
[5] = target: rKv1.6 (rat) (UniProt P17659)
[6] = target: Shaker IR (Drosophila) (UniProt P08510); remark: listed apart in the source
[7] = target: rKv1.2 (rat) (UniProt P63142); remark: listed apart in the source
[8] = target: rKv1.3 (rat) (UniProt P15384); remark: listed apart in the source
[9] = target: His28 (UniProt position 50, AFGRAHGKCMN); conditions: free toxin (inferred); cited from earlier work

Sequence of rKv1.2 (rat) (P63142 whole entry): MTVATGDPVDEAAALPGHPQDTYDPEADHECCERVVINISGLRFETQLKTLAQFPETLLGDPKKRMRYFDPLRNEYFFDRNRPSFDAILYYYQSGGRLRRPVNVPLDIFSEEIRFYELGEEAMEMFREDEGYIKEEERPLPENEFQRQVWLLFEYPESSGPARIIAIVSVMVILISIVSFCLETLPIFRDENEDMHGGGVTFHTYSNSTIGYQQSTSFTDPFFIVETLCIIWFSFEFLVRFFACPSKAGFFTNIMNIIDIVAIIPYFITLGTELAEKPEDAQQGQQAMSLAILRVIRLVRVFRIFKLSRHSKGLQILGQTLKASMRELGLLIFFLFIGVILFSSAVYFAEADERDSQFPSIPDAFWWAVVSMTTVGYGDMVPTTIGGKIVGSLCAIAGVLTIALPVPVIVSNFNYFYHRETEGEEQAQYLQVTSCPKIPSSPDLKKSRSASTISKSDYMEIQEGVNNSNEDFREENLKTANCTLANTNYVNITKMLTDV
Sequence of Shaker IR (Drosophila) (P08510 whole entry): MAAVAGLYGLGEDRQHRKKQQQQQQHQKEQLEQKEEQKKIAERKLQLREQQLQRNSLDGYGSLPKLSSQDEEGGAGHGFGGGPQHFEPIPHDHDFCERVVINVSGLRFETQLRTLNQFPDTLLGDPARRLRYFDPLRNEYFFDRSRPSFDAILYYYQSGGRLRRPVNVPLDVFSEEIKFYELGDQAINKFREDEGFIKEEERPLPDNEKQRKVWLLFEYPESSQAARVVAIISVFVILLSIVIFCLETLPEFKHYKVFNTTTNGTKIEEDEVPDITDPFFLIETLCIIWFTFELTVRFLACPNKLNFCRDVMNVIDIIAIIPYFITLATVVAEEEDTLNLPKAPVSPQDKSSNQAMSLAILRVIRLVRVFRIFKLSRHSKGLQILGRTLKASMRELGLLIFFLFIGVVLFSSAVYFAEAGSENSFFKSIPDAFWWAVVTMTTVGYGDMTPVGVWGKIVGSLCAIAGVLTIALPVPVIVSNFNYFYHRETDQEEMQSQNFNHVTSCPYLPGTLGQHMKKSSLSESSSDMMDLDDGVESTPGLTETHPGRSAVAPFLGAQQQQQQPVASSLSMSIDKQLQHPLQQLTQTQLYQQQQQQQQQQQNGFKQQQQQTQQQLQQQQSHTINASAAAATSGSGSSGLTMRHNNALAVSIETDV
Sequence of rKv1.3 (rat) (P15384 whole entry): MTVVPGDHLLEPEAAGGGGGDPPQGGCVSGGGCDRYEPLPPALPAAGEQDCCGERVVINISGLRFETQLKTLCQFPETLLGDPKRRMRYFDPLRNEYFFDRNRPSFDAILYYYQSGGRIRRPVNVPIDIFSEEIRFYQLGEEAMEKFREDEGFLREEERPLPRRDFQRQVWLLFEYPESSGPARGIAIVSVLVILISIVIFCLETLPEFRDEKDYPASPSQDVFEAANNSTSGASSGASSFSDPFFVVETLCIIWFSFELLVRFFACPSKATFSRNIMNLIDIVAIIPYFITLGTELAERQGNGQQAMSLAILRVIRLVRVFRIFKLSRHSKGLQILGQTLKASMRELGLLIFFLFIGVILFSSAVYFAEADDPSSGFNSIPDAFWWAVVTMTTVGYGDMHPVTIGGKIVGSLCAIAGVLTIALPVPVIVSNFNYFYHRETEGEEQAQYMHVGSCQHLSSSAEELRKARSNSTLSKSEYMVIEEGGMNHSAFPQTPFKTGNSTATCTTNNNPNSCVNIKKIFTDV
Sequence of rKv1.1 (rat) (P10499 whole entry): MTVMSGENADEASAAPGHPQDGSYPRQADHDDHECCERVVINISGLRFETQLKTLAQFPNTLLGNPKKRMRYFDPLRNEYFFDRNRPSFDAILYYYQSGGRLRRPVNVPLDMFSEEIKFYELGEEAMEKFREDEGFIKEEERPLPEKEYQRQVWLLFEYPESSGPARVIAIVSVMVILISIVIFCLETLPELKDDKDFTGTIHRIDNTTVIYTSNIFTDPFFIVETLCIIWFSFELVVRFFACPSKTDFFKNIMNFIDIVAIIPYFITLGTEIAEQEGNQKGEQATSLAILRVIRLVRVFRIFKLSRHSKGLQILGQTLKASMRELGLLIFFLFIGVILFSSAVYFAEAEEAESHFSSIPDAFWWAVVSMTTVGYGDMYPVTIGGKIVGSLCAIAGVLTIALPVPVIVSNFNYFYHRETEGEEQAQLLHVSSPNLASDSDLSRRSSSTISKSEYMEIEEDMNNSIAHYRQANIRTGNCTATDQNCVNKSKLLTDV
Sequence of rKv1.6 (rat) (P17659 whole entry): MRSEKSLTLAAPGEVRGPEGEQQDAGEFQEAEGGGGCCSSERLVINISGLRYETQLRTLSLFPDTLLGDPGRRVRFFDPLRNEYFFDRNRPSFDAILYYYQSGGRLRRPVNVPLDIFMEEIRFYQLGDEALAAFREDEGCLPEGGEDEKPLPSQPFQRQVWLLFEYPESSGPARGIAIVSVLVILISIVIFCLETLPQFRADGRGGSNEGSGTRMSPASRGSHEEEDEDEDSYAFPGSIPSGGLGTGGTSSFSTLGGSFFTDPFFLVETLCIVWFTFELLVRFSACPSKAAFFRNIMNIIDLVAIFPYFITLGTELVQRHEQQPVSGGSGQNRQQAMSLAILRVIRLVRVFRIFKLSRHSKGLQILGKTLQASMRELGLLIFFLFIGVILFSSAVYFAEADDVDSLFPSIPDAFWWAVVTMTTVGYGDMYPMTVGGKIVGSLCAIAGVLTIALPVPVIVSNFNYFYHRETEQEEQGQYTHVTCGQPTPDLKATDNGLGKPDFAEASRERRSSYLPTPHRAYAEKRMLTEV

Substance: Ts7 (from UniProt P46114 23-59) (peptide)
- blocking effect on the K+ current at 1 µM Ts7, two-microelectrode voltage clamp on Xenopus oocytes [1]: 97%
- blocking effect on the K+ current at 1 µM Ts7, two-microelectrode voltage clamp on Xenopus oocytes [2]: 85%
- blocking effect on the K+ current at 1 µM Ts7, two-microelectrode voltage clamp on Xenopus oocytes [3]: 91%
- blocking effect on the K+ current at 1 µM Ts7, two-microelectrode voltage clamp on Xenopus oocytes [4]: 89%
- blocking effect on the K+ current at 1 µM Ts7, two-microelectrode voltage clamp on Xenopus oocytes [5]: 94%

Substance: Ts6 (from UniProt P59936 23-62) (peptide)
- blocking effect on the K+ current at 1 µM Ts6, two-microelectrode voltage clamp on Xenopus oocytes [6]: 79%
- blocking effect on the K+ current at 1 µM Ts6, two-microelectrode voltage clamp on Xenopus oocytes [7]: 86%
- blocking effect on the K+ current at 1 µM Ts6, two-microelectrode voltage clamp on Xenopus oocytes [8]: 98%

Substance: Ts6 (alpha-KTx12.1, TsTX-IV, butantoxin) (Tityus serrulatus)
- pKa [9]: 5.2
